{
  "source": "the DeepSol protein solubility set",
  "data": [
    {"experiment": "soluble on expression in E. coli; label from the status in PepcDB or PDB records", "values": [
      {"sequence": "MAHHHHHHMLFRTIRHFDLRRPTLMELVRELRFRTEAPIADCCAALKEANENMDRALEVLRNKGLAKAVKKGSRVTEHGSVVACVGETFGAAIVTVCSETDFAARSLQFQRVCGTVMETLRTQIISTEGTALDDCAAVHRLLTDAAAEQIQATIAVLGENVTIKSIQPLRFAPHVAEHISIGAYTHGTLSVQNVGRVAGVVAVSRTDPSARVPEEKLVDVARHFVACSGAEGSYAHQNFFGTEETVGQWLKRHGLRFSSSLVVDFGKEPIIHTAPQPVAGTK", "soluble on expression in E. coli": "soluble"},
      {"sequence": "MTSIHVQVPATTANIGAGFDCLGAALSLHNQFQFRLAGESEPFFSLELVGADVETQKLEATADNLLYRAFAKVFATLGQPVPHVNIAIDLKVPLSRGLGSSATAIVGGLVGANALAGSPLSQREIMNLAIEMEGHPDNVVPALLGGCQLSVKHQQDWVI", "soluble on expression in E. coli": "not soluble"},
      {"sequence": "MSAPDLFVAHFREAVPYIRQMRGKTLVAGIDDRLLEGDTLNKLAADIGLLSQLGIRLVLIHGARHFLDRHAAAQGRTPHYCRGLRVTDETSLEQAQQFAGTVRSRFEAALCGSVSGFARAPSVPLVSGNFLTARPIGVIDGTDMEYAGVIRKTDTAALRFQLDAGNIVWLPPLGHSYSGKTFYLDMLQTAASAAVSLQAEKLVYLTLSDGISRPDGTLAETLSAQEAQSLAEHAGGETRRLISSAVAALEGGVHRVQILNGAADGSLLQELFTRNGIGTSIAKEAFVSIRQAHSGDIPHIAALIRPLEEQGILLHRSREYLENHISEFSILEHDGNLYGCAALKTFAEADCGEIACLAVSPQAQDGGYGERLLAHIIDKARGIGISRLFALSTNTGEWFAERGFQTASEDELPETRRKDYRSNGRNSHILVRRLHR", "soluble on expression in E. coli": "not soluble"},
      {"sequence": "EEGLSGSKTFKIITKDYDIMNKEIKERLGRYCTFTKVTIDEENNSFVEISCVINKLEEQKLKEIINDVDPDAFIAIYDTAEVKAGNMKKSDIY", "soluble on expression in E. coli": "soluble"},
      {"sequence": "GAKESEQKVTIDSAKHEKHTKDKEENNSANTVFFDKINDLLVASVKEFEGTVGISYLDLETGEQRSVNGQHEFYTASTIKVPLTMLVADTVASGQKKWTDLIPYNAEEDYEEGTGIIAYNIQPEYPLKTLQEYAITYSDNIAKNMLYDTLGGDAKAKREMYQRYLHKTPSIEEPQFSSEDALVILQKLYTEKATKPDYQAIYDSMKQSVFHERMETPTTQGKVAHKIGSYDEFIHDMGILETPHPFALAIFTKGPDNAKSAAFIASVTDKLWQLQVSEYPNQ", "soluble on expression in E. coli": "soluble"},
      {"sequence": "MGSDKIHHHHHHMSQTMMLIEKSSHCVSWYDTETGALQGRLALPDFPHEFVVDQDNHYAYVGHYGVQNSGVEGTDGRSVIVIDIRKQEIVHRYDLGEHARPHGISLDAQGRLYVLSEWSGHLLVKENPRAFDQGWDHVTPVGGEKPHLFALTGDGRTAYSMNLNSGDVTVLDPYDPTRIPVSIKTGEKPEGRCLREEAGVLYTSQRISNTVAVVDTKTLQVQRIFPTPQDPCRVYYDAKRNRLVTMNHHGGSFSVFDEATGEMLHEQKTPANPLALCIDDEAAYAYIAIDCEQVQRFNLDTFEVVQTFDTGKEPDVMVILPEGYSKHWEVNA", "soluble on expression in E. coli": "not soluble"},
      {"sequence": "MKKKGKFLLFTMDEFDQWLLETRFSRSVKLVQNHHTYLPGYVQFTGSNHFGLLEGMEHFHMAERGFSEIAQNLTSFPDGTVAVCRSIDKVPCGIKGANQEGICLENLGNFDAGGDTMTPAHRDAIVKINALLCREFNLTPNTDSIVYHHWYDLNSGKRTGGSGTTKTCPGTAFFGGNSMDAAAATFIPLVAQTLAQLTGGTAPSAPVPLKSGEVVASSLNVRAGRGTEFPVVKGLKRGVRVNVFETADGWVRIHPTEQQWVAERYLRYAAAALEHHHHHH", "soluble on expression in E. coli": "soluble"},
      {"sequence": "MAYQLYRNTTLGNSLQESLDELIQSQQITPQLALQVLLQFDKAINSALAQRVRNRVNFRVRMSSCIWKSVLLTLRAYVDLTHHSKIWLVWFGNLFYNRCAKFIHSMCFRIAFRF", "soluble on expression in E. coli": "not soluble"},
      {"sequence": "MSLASRQAIGFIAPSLAGEFMTGVMEGILQSLRKHQYDLIAVQGAPQHLINNQLAKQHIKAWIVIIDPTGLNELATNMPAVVISAPNAGERFPLVMPDNNQSARAMVEHLIEHGHSKIAFVGNFNNSDMRDRYTVYCDVLNEHSITPNPAWVVDVGDYTEGRTEHAFYPLIANGLNFSAVVAANDQQAVGVMMALETKGYRVPHDMAVVGFDDATIAQHANPPLTTVRQQPQLLGSIAADTVIELIAGKPVSNAPIYVPTIPIWRQSCGCKDVYTGIKEGHHHHHH", "soluble on expression in E. coli": "not soluble"},
      {"sequence": "GHMIMANWQSIDELQDIASDLPRFIHALDELSRRLGLNITPLTADHISLRCHQNATAERWRRGFEQCGELLSENMINGRPICLFKLHEPVQVAHWQFSIVELPWPGEKRYPHEGWEHIEIVLPGDPETLNARALALLSDEGLSLPGISVKTSSPKGEHERLPNPTLAVTDGKTTIKFHPWSIEEIVASEQSA", "soluble on expression in E. coli": "soluble"},
      {"sequence": "TPDIQMTQSPSSLSASVGDRVTITVQASQDIIKHLNWYQQTPGKAPKLLIYEASNLQAGVPSRFSGSGSGTDYTFTISSLQPEDIATYYCQQYQSLPYTFGQGTKLQIT", "soluble on expression in E. coli": "soluble"},
      {"sequence": "MTNQPTEIAIVGGGMVGGALALGLAQHGFSVTVIEHAEPAPFVADSQPDVRISAISAASVSLLKGLGVWDAVQAMRCHPYRRLETWEWETAHVVFDAAELKLPLLGYMVENTVLQQALWQALEAHPKVTLRVPTSLIALHRDNDLQELELKGGETIRAKLVIGADGANSQVRQMAGIGVHAWQYAQSCMLISVQCENDPGDSTWQQFTPDGPRAFLPLFDNWASLVWYDSPTRIRQLQNMNMAQLQAEIAKHFPSRLGYVTPLAAGAFPLTRRHALQYVQPGLALVGDAAHTIHPLAGQGVNLGYRDVDALIDVLVNARSYGEAWASYPVLKRYQMRRMADNFIMQSGMDLFYAGFSNNLPPLRFVRNLGLMAAERAGVLKRQALKYALGLLEHHHHHH", "soluble on expression in E. coli": "not soluble"},
      {"sequence": "MGSDKIHHHHHHMRTFQYANANPSANVSPMGRTSLATSAAKARGPLNGLIAERMRQLNLSTVKDFADYAGIGRTSIHDLVRGRTTTSGTWTKPSFDTLTKLAVALDKPTHELLYLIDPEAPGANLMFDVQQVPVYIAGQVGAGPQQLWESSDVVYVERQFAENRDLIAFTVVGDSMAGGRHPIHDGDVVIVDQRVGGEVNFPVVARLKDDGHVVKRCGPAASSTAPTRTSWTLTPQSLPLTVSPTWWDASSG", "soluble on expression in E. coli": "not soluble"},
      {"sequence": "MENVSDDRFAEMVWEAVSGGATLKDVHGIPQDMMEGLYAHAYDFYHKGRLDEAETFFRFLCIYDFYNPDYIMGLAAVCQLKKQFQKAVDLYAVAFALSKNDYRPVFFTGQCQLFMRKAAKARQCFELVCEQSGLEHHHHHH", "soluble on expression in E. coli": "not soluble"},
      {"sequence": "MKLNDPLVESFEFRGEIYPIDLSFNKVLDVFDVIDDDFLNEAEKCFLCLDILLDRTDLPFTYAVDLWVYIKTNFIDAERPEKPQLDIKGNPMPVVKEKEDNKKVIDLSLDAEFIYASFRQAYQINLLKEQNRLSWIEFKALLNALPDDTVMQRIIAIRQWEDDGEGSKKYRDNMRKLKAKYSLDEREEEDDGS", "soluble on expression in E. coli": "not soluble"},
      {"sequence": "AEKTNYAVTYKSDSVPSISMAVNTEQSSHYISQFIAVQGLEDHSAKSIFIQDMLQRIVSKRLMHYVREELSLDYAPYALMVNADSEFKPHWVMGAQVDPKNAELIESAIDKVIKDLLRGVTENEVNAAAKQLVVDLEPLKNNSTQQAWLLNRYTIHNYGIEALFGISETANSVNAEDINRLIKYSFGKNSHQFKYLSTPI", "soluble on expression in E. coli": "not soluble"},
      {"sequence": "MAHGFHASVMAITLDKITLTETTLTNPKAVEYQWVRTLYVQGYQPEAINHYIQTCFGGDETFADLFRRVAMHEESLYLLLQYLSCAPSSREF", "soluble on expression in E. coli": "soluble"},
      {"sequence": "MKNNQNSNIHLLRSAKHAEPVMLDIKQLVKTYDNGHQAVKGVDLSIHQGEFIVLVGPSGCGKSSILRSIAGLESITSGEIHLAGRRVDNEKPANRDIAMVFQNYALYPHMSVYDNLAYGLKNRGVDKQTIAAKIAKVAKTLKIEEYLDRKPAKLSGGQRQRVAMGRAIVRDPQLFLFDEPLSNLDAALRAHMRLEIKKLQRELGVTSVYVTHDQVEAMTLADRIVVVKQGEIEQVGTPAEVYHQPASTFVASFIGSPAMNFLPASIKQGQLHIAGKHCYLPQFDAMSSENITLGIRPEHASLHPLTNAIELKLDIQVVEPLGPNQLVHGKIIGLESEQDFIAVTAEIPLDVHQTLPIWVALEQLHLFDQQGKRFVQSHRSCTQSSKVASTRQQ", "soluble on expression in E. coli": "not soluble"},
      {"sequence": "MKNPGTHILPKNPECSKQKTLTKQLLLLELFEFQLDAQIQQNTFQLELTIQRRKEHLEIDSVMKIKNRNFANFGMFNSLHIIRFWNLFYNRISAADFPENSGFRMFATEILVKLENIGNVM", "soluble on expression in E. coli": "not soluble"},
      {"sequence": "MAKEVWRFIDSGYCPPAFNMALDEALLDWHSEGKIPPTIRFYGWNPPTLSIGYFQKVEKEIDLEAVKRHGLGFVRRPTGGRGVLHDKELTYSVIVSESHPAMPKTVTEAYRVISQGILEGFRYLGLDAYFAVPRTEEEKADLRSPRSAVCFDAPSWYELVVEGRKIAGSAQTRQKGVILQHGSILLDLDEDLLFSLFKYPNERVKERLQRDFKKKAVAINELTSRTVTIEEAKEAFYKGFEKGLNIVLEPYTLTAEERAYVEELARTKYESDEWNFKR", "soluble on expression in E. coli": "not soluble"},
      {"sequence": "SAEGEDVGWWRSWLQQSYQAVKERSTEALEFMKRDLTEFTQVVQHDTACTIAATASVVKEKLATEGSSGATEKVKKGLSDFLGVISDTFAPSPDKTIDCDVITLMGTPSGTAEPYDGTKARLYSLQSDPATYCNEPDGPPELFDAWLSEFCLEEKKGEISELLVGSPSIRALYTKMVPAAVSHSEFWHRYFYKVHQLEQEQARRDALKQRADQSISEEPGWEEEEEELEGIVPSPKEAKIPKETKTTTSPEDEPAPQSPCEETPVEPPAEATPSESSESISLVTQVANPAAAPEAPELPKDLSQKLFEASLEEQSLAEDEGETGPPPPPPSKPLTPAGRASGPEPRPPARVETLREEVPTDLRVFELNSDSGKSTPSNNGKKGSSTDISEDWEKDFDLDMTEEEVQMALSKVDASGELEDVEWEDWE", "soluble on expression in E. coli": "not soluble"},
      {"sequence": "MKEKVVSLAQDLIRRPSISPNDEGCQQIIAERLEKLGFQIEWMPFNDTLNLWAKHGTSEPVIAFAGHTDVVPTGDENQWSSPPFSAEIIDGMLYGRGAADMKGSLAAMIVAAEEYVKANPNHKGTIALLITSDEEATAKDGTIHVVETLMARDEKITYCMVGEPSSAKNLGDVVKNGRRGSITGNLYIQGIQGHVAYPHLAENPIHKAALFLQELTTYQWDKGNEFFPPTSLQIANIHAGTGSNNVIPAELYIQFNLRYCTEVTDEIIKQKVAEMLEKHNLKYRIEWNLSGKPFLTKPGKLLDSITSAIEETIGITPKAETGGGTSDGRFIALMGAEVVEFGPLNSTIHKVNECVSVEDLGKCGEIYHKMLVNLLDS", "soluble on expression in E. coli": "soluble"},
      {"sequence": "MGSDKIHHHHHHGCDREEDERFPSGHHDPIEGDGEMVPINVKVDGVDEFPGGAVTRSGEILTKIVQPLDSTYDSGYDVETTIESLLPVNPVQTRGNMANMQFRVVAYKNNSITAANYAGTAVYSTNASGIASIVANTATPAAVSGQWVLRPGTYAFVFYSYGTNSAPAALSGNWSTTVTHNQDFMLCQKTGVDVKADASGQCLLSGISFSRQCAQLQLCVVAKEFNNNTVQQCAATISGLSNSPVTWNASQTTLPVTGTSGTLNVAWTNPNATTVNSNVYKVLPQTNRTLTIKFTTLKIGNGQMNNAITVSATSRIFSAAGNYKITVSIVPNYISVRSYKWARGNLYKSGSNFYFEASQSNYHGGATEGGFIGWNTLDIGVGKYNSGNYSTANDPCYQVVPPGTWETPSDGQLQDLINAGVTYSGSPKGFWFGGNNGVFLLALGSRDQSSTTINNTISKNGAWAFYWSRTPSGKTAKGLNAMQGNNSAGIDNSWARPDGRTIRCVKR", "soluble on expression in E. coli": "not soluble"}
    ]}
  ]
}
